Results published in publication PMC2975025 (Developmental cell, 2010).

B1: Bovine clathrin heavy chain residues 1074–1675 (hub), wild type (domain or fragment, UniProt P49951 1074-1675, looked up)
chain: KFDVNTSAVQVLIEHIGNLDRAYEFAERCNEPAVWSQLAKAQLQKGMVKEAIDSYIKADDPSSYMEVVQAANTSGNWEELVKYLQMARKKARESYVETELIFALAKTNRLAELEEFINGPNNAHIQQVGDRCYDEKMYDAAKLLYNNVSNFGRLASTLVHLGEYQAAVDGARKANSTRTWKEVCFACVDGKEFRLAQMCGLHIVVHADELEELINYYQDRGYFEELITMLEAALGLERAHMGMFTELAILYSKFKPQKMREHLELFWSRVNIPKVLRAAEQAHLWAELVFLYDKYEEYDNAIITMMNHPTDAWKEGQFKDIITKVANVELYYRAIQFYLEFKPLLLNDLLMVLSPRLDHTRAVNYFSKVKQLPLVKPYLRSVQNHNNKSVNESLNNLFITEEDYQALRTSIDAYDNFDNISLAQRLEKHELIEFRRIAAYLFKGNNRWKQSVELCKKDSLYKDAMQYASESKDTELAEELLQWFLQEEKRECFGACLFTCYDLLRPDVVLETAWRHNIMDFAMPYFIQVMKEYLTKVDKLDASESLRKEEEQATETQPIVYGQPQLMLTAGPSVAVPPQAPFGYGYTAPAYGQPQPGFGYSM

Key:
[1] = target: the molecule itself; test: crystal structure
[2] = target: T1, KR-mutant CHC hub (K1163E and R1165D) (bovine, UniProt P49951 1074-1675, K1163E | R1165D); test: SPR
T1 sequence (looked up): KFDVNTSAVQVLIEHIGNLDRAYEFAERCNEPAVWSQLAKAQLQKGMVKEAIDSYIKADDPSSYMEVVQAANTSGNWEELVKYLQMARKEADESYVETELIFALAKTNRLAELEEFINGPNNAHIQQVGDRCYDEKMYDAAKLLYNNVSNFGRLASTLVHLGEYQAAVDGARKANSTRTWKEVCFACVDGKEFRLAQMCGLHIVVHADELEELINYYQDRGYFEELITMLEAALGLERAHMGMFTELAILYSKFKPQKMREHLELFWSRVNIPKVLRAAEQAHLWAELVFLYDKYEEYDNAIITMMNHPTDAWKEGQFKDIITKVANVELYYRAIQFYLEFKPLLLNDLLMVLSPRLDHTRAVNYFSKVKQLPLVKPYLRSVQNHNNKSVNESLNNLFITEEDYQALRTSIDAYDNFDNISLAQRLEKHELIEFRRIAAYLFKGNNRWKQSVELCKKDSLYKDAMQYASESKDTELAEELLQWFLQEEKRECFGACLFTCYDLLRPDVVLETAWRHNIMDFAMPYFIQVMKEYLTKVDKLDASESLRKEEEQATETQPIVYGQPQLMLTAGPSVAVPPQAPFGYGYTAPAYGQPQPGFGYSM

[3] = target: B1; test: SPR

## B1
[1]
  stoichiometry N: 3

B2: Human neuronal LCb, his-tagged fusion protein, wild type (natural protein, UniProt P09497 1-229, looked up)
chain: MADDFGFFSSSESGAPEAAEEDPAAAFLAQQESEIAGIENDEGFGAPAGSHAAPAQPGPTSGAGSEDMGTTVNGDVFQEANGPADGYAAIAQADRLTQEPESIRKWREEQRKRLQELDAASKVTEQEWREKAKKDLEEWNQRQSEQVEKNKINNRIADKAFYQQPDADIIGYVASEEAFVKESKEETPGTEWEKVAQLCDFNPKSSKQCKDVSRLRSVLMSLKQTPLSR
[2]
  Kd: 59.1 nM
[3]
  Kd: 25 nM
